Source: the supplement of paper PMC9170038

System: MS2 coat protein
Test: apparent KD of MS2 coat protein; designed switch direction (-1 OFF switch, 1 ON switch): -1; higher = weaker reporter binding
Outline: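 Designed RNA switches with common flanks were transcribed on Illumina chips by stalled E. coli RNA polymerase and titrated with SNAP-549-labelled MS2 coat protein, from 0.7 or 1.5 nM doubling to 3 µM, in Tris-HCl pH 7.5 buffer with KCl, MgCl2, BSA, DTT, tRNA and Tween-20. Steps lasted 0.8–1.5 h (lowest) to 10–20 min (highest). Titrations ran without input, with 200 uM small-molecule ligand, or with an oligonucleotide input. Normalised cluster fluorescence was curve-fitted, and apparent KD is the per-design median over clusters.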

[1] = input ligand: microRNA oligo, concentration not stated
[2] = Eterna round: R95, input ligand: microRNA oligo, concentration not stated
[3] = Eterna round: R95, input ligand: FMN 200 uM
[4] = Eterna round: R95, input ligand: none

Sequence	apparent KD of MS2 coat protein (input ligand: FMN 200 uM) [µM]	apparent KD of MS2 coat protein [1] [µM]	apparent KD of MS2 coat protein (input ligand: none) [µM]	apparent KD of MS2 coat protein [2] [µM]	apparent KD of MS2 coat protein [3] [µM]	apparent KD of MS2 coat protein [4] [µM]
UUCGUACAGCAAAGCUGUACGCGUACAUGAGGAUCACCCAUGUAGGAUAUGGUAGGCAAAGCUUACUAGAAGGAUAGAGUGAUC [Mat - Exclusion NG 3 - Mod of JL - D76] (Eterna round: R96, puzzle: Exclusion NG 3)	0.593	0.29	0.582			
GGAUCCUGGGUCAGGAUAUGCUGACAGCUUUGUCAGCAGAAGGGACAUGAGGAUCACCCAUGUGCUCGGUUUUG [Magic-20] (puzzle: Brourd's mod of Exclusion 4)				0.00968		
UUUAAUUUAAUUAAGAUCACAUGAGGAUCACCCAUGUAAUUAUAGGAUAUCAGCUCGAUUAGAGCUGAGAAGGAUAAUUACAUA [ExNG3/5-A1] (Eterna round: R96, puzzle: Exclusion NG 3)	0.105	0.0751	0.0581			
AACCUGUCAGGAUAUCAAUUCUGUGCGUGACUACAGGACGCUGAGAAGGGACAUGAGGAUCACCCAUGUUGACU [Eternabot (Original) Solution 33] (Eterna round: R97, puzzle: Exclusion 4)	0.0247		0.0268			
GAAGAGACAGGAUAUACAUGAGGAUCACCCAUGUGAGGAGGUUGGAGGCGGAGAAGGUGUAGAAGGGUCAAAGA [JR_Exclu3_Sub022] (puzzle: Exclusion 3)				0.036	0.0415	0.0514
CUGAGGUAGCGGUCCUAUGACAUGAGGAUCACCCAUGUACCUUGCUUCGAGCUUAUUGCUCGUCUUAUGAUUCUCGG [Mat - Sensor v3 - turn-off var 1 - JL Mod - D33] (puzzle: Sensor v3, turn-off variant 1)				0.714	0.551	0.613
UUUUUUUAUGAAGGAUAUACUUAACAUGAGGAUCACCCAUGUGGUGUUGUGAGUGAGUGAGUUUAGUAGAAGGUCAAUUAUUUU [JMF's solution 23] (Eterna round: R96, puzzle: Exclusion NG 2)	0.412	0.379	0.334			
GUAUAACUACACGGGCUCAACAUGAGGAUCACCCAUGUCACAUACGCAAGCUUUUUGCUUGUCUUAUCUGUCCGUGA [Quleorraa] (puzzle: Sensor v3, turn-off variant 1)				0.0119	0.0123	0.0107
CAACGAAGUCGAGGAUAUGCCCACUCCGCAGCGGCAGAAGGCGACAUGAGGAUCACCCAUGUAACGGCUAACGGGAUGGGAAGG [Eternabot solution 7] (Eterna round: R96, puzzle: Exclusion NG 1)	0.162	0.0177	0.0259			
CAAAAUGUAUAAGGAUAUCUCGCCAAUAAAGGCAGAGAAGGUAUACCCACUUGAGGAUCACCCAAGUCAGGUGUGCCUGGUGGA [Mutated MS2 EX1.24] (Eterna round: R96, puzzle: Exclusion NG 1)	0.00787	0.00761	0.0109			
AGCGAGGCAGGAUAUACAUGAGGAUCACCCAUGUACUUGUAUGGCGUGGAACAUCGUGGUAGAAGGGCCGUGCC [EX3 #80] (Eterna round: R97, puzzle: Exclusion 3)	0.0927		0.0689			
AUUGUUUGAUACCUCUAAUACAUGAGGAUCACCCAUGUUAUCGAGGAUAUGCAUUAGAGUGGUUAGCAGAAGGCGAAGUAAUUG [JR_ExcNG3_Sub030] (Eterna round: R96, puzzle: Exclusion NG 3)	0.0185	0.0142	0.0171			
UUACGUUUAGAGGAUAUAUUAAGGAAGGUAACGAUAGAAGGCUAGACAUGAGGAUCACCCAUGUAUAUAGGGAU [JR_Ex6_Sub071] (Eterna round: R97, puzzle: Exclusion 6)	0.141		0.054			
CCGCAAAAGGAGGAUAUCGUAUCGGAUACGAUACGAGAAGGCCUAACAUGAGGAUCACCCAUGUGUCCUAGCGG [Fiskers Ex 6 - 36] (puzzle: Exclusion 6)				0.0148	0.0238	0.0145
AUAGAGUUAGGAUAUGAGAGGCCGAACAUGAGGAUCACCCAUGUUCCGCGUGUUGCUCCCUUAGAAGGAACGAAUA [EX5 B.3] (Eterna round: R97, puzzle: Exclusion 5)	0.0147		0.022			
AAAAGAAGUGUUAGGAUAUGUGGAAGUAGAAAGACACAGAAGGAACAUGAGGAUCACCCAUGUGGCCUAAGAAC [Bibire] (puzzle: Brourd's mod of Exclusion 4)				0.0105	0.0154	0.0116
GCUGGACGAGGAUAUAUAUGACGUGCUUCGGCACGAAGAUCACAUGAGGAUCACCCAUGUAGAAGGUGUCCAGC [E2/8-B2] (Eterna round: R97, puzzle: Exclusion 2)	0.278		0.0541			

Sequence	apparent KD of MS2 coat protein (input ligand: FMN 200 uM) [µM]	apparent KD of MS2 coat protein [1] [µM]	apparent KD of MS2 coat protein (input ligand: none) [µM]	apparent KD of MS2 coat protein [2] [µM]	apparent KD of MS2 coat protein [3] [µM]	apparent KD of MS2 coat protein [4] [µM]
GCGAAAGCAAACAAGUGAAACAUGAGGAUCACCCAUGUCCUCAUUUGCUCGUCUUAUAAGCUAUGCGAAAGCAUAGC [Sensor 3, v1 - 6] (puzzle: Sensor v3, turn-off variant 1)				0.269	0.038	0.0416
UAUUAACAAGCAAGAUCCUACAUGAGGAUCACCCAUGUGCUCGUCUUGUAAGGUACUGUGACGAAAGUCACGGUACC [Sensor 3, v1 - 71] (puzzle: Sensor v3, turn-off variant 1)				0.232	0.022	0.0189
GCUGCAAGAGGAUAUACAUGAGGAUCACCCAUGUGGGAUCGCGUUCUGGAUCAGGACUGUAGAAGGUUUGUGCG [Eternabot (L1) Solution 63] (Eterna round: R97, puzzle: Exclusion 3)	0.286		0.0913			
GGAAACCGAGGAUAUCAGUACACGCACAUGAGGAUCACCCAUGUGCUCCUGGGUGCUGUCUGAGAAGGCGGUGAGA [Quan] (Eterna round: R97, puzzle: Exclusion 5)	0.648		1.62			
UUUAAUUUUUUUUUUUUACAAGCUUUUUGCUCGUCUUAUACAUGAGGAUCACCCAUGUGGGUGGAAAAUAAAUUAUC [JMF 92] (puzzle: Sensor v3, turn-off variant 2)				0.045	0.0339	0.0884
CUUUUGUGAGGAUAUCAGUAGUAAAAAAAUAAAAUUACUACUGAGAAGGCACAUGAGGAUCACCCAUGUUCCUC [salish99_ex4_r3_009] (puzzle: Exclusion 4)				0.0397	0.257	0.0384
UUAAUACAUGUAGGAUAUGCGUGGCGAAGCUAUGCAGAAGGACAUGAGGAUCACCCAUGUUCUUGCGUCCGCGUACGGAUGCAA [JL Eng1 1.21 mod 4] (Eterna round: R96, puzzle: Exclusion NG 1)	0.0294	0.0102	0.0152			
UUGUAACAUGAGGAUCACCCAUGUGAGGAUAUGGCCCGCCCGGCGUGAGCUGGUUUUGUCAGAAGGCGCAUAGG [salish99_ex1_r4_022] (Eterna round: R97, puzzle: Exclusion 1)	0.158		0.0499			
CGAAGUACGUAAGGAUAUACCGUGAGGACAACGGUAGAAGGUACAACAACAUGAGGAUCACCCAUGUGGACCUCUCGGCGUUGU [Eternabot solution 19] (Eterna round: R96, puzzle: Exclusion NG 1)		0.309				
GGUCCACGAGGAUAUCGAUUAUAGUACAUGAGGAUCACCCAUGUUGUCCAGGUUUCGAUUCGAGAAGGCGUGGGUU [LRO-Ex5-02] (puzzle: Exclusion 5)				0.0518		
AUUCAACAUGAGGAUCACCCAUGUGAGGAUAUGCGAGAAUAGACUUCGGUCAGAUAGAGCAGAAGGCGCAGAUA [EX1 #5] (Eterna round: R97, puzzle: Exclusion 1)	0.022		0.0291			
CCGAAUAAGCAGGAUAUCGAAUCGGAGACGAUUCGAGAAGGGUUAACAUGAGGAUCACCCAUGUUCCUUAACGG [Mat - Exclusion 6 - Eli Mod - D79] (puzzle: Exclusion 6)				0.0173		
CCGUUCCGUGUAGGAUAUUGGCCUUCCUCGGGCCGAGAAGGACAUGAGGAUCACCCAUGUAUGCUAUUAUCGCGCGUGGCGCAC [Design 97] (Eterna round: R96, puzzle: Exclusion NG 1)	0.158	0.0226	0.0391			
ACUUAUAGAGGAUAUACAGAUUAUUACAUGAGGAUCACCCAUGUUCUUCAAUGUAUAUAUGUAGAAGGCUAAGGAA [JL-ex5-4.23 Malcolm mod] (Eterna round: R97, puzzle: Exclusion 5)	0.381		0.0822			
GAAGAGACAGGAUAUACAUGAGGAUCACCCAUGUGAGUAUGUUGGAGGCGGAGGAGAUGUAGAAGGGUCAAAGA [JR_Exclu3_Sub018] (puzzle: Exclusion 3)				0.0239	0.0363	0.0297
UUUAAUUUUUUUUUUUUACAAGCUUUUUGCUCGUCUUAUACAUGAGGAUCACCCAUGUGGGUGAAAAGUAAAUUAUC [JMF 44] (puzzle: Sensor v3, turn-off variant 2)				0.0187	0.0224	0.0331
AACCGUGCGGAGGAUAUUGAUAUCCCAGUCUAUCAAGAAGGCUGCACAUGAGGAUCACCCAUGUGAUCCGUGCU [Riri] (puzzle: Exclusion 6)				0.0236		
